# Experimental data reported in publication PMC9606269, “Biased signaling due to oligomerization of the G protein-coupled platelet-activating factor receptor” (Nature Communications, 2022).
# B1: Human β-arrestin1 tagged with Rluc (natural protein, UniProt P49407 1-418, looked up)
# chain: MGDKGTRVFKKASPNGKLTVYLGKRDFVDHIDLVDPVDGVVLVDPEYLKERRVYVTLTCAFRYGREDLDVLGLTFRKDLFVANVQSFPPAPEDKKPLTRLQERLIKKLGEHAYPFTFEIPPNLPCSVTLQPGPEDTGKACGVDYEVKAFCAENLEEKIHKRNSVRLVIRKVQYAPERPGPQPTAETTRQFLMSDKPLHLEASLDKEIYYHGEPISVNVHVTNNTNKTVKKIKISVRQYADICLFNTAQYKCPVAMEEADDTVAPSSTFCKVYTLTPFLANNREKRGLALDGKLKHEDTNLASSTLLREGANREILGIIVSYKVKVKLVVSRGGLLGDLASSDVAVELPFTLMHPKPKEEPPHREVPENETPVDTNLIELDTNDDDIVFEDFARQRLKGMKDDKEEEEDGTGSPQLNNR
# Experiments:
# [1] = biological target: Halo-PAFR Cys mutant 1.33; test: cysteine cross-linking with CuP, SDS-PAGE blot quantification of cell surface Halo-PAFR; conditions: parent: est. 5, read off a plot
# [2] = biological target: Halo-PAFR Cys mutant 1.35; test: as above; conditions: parent: est. 5, read off a plot
# [3] = biological target: Halo-PAFR Cys mutant 1.38; test: as above; conditions: parent: est. 5, read off a plot
# [4] = biological target: Halo-PAFR Cys mutant 1.39; test: as above; conditions: parent: est. 5, read off a plot
# [5] = biological target: Halo-PAFR Cys mutant 1.41; test: as above; conditions: parent: est. 5, read off a plot
# [6] = biological target: Halo-PAFR Cys mutant 2.59; test: as above; conditions: parent: est. 5, read off a plot
# [7] = biological target: Halo-PAFR Cys mutant 2.63; test: as above; conditions: parent: est. 5, read off a plot
# [8] = biological target: Halo-PAFR Cys mutant 3.23; test: as above; conditions: parent: est. 5, read off a plot
# [9] = biological target: Halo-PAFR Cys mutant 3.27; test: as above; conditions: parent: est. 5, read off a plot
# [10] = biological target: Halo-PAFR Cys mutant 4.47; test: as above; conditions: parent: est. 5, read off a plot
# [11] = biological target: Halo-PAFR Cys mutant 4.48; test: as above; conditions: parent: est. 5, read off a plot
# [12] = biological target: Halo-PAFR Cys mutant 4.51; test: as above; conditions: parent: est. 5, read off a plot
# [13] = biological target: Halo-PAFR Cys mutant 4.53; test: as above; conditions: parent: est. 5, read off a plot
# [14] = biological target: Halo-PAFR Cys mutant 4.54; test: as above; conditions: parent: est. 5, read off a plot
# [15] = biological target: Halo-PAFR Cys mutant 4.56; test: as above; conditions: parent: est. 5, read off a plot
# [16] = biological target: Halo-PAFR Cys mutant 4.57; test: as above; conditions: parent: est. 5, read off a plot
# [17] = biological target: Halo-PAFR Cys mutant 4.58; test: as above; conditions: parent: est. 5, read off a plot
# [18] = biological target: Halo-PAFR Cys mutant 4.60; test: as above; conditions: parent: est. 5, read off a plot
# [19] = biological target: Halo-PAFR Cys mutant 4.61; test: as above; conditions: parent: est. 5, read off a plot
# [20] = biological target: Halo-PAFR Cys mutant 4.64; test: as above; conditions: parent: est. 5, read off a plot
# [21] = biological target: Halo-PAFR Cys mutant 6.49; test: as above; conditions: parent: est. 5, read off a plot
# [22] = biological target: Halo-PAFR Cys mutant 6.51; test: as above; conditions: parent: est. 5, read off a plot
# [23] = biological target: Halo-PAFR Cys mutant 6.53; test: as above; conditions: parent: est. 5, read off a plot
# [24] = biological target: Halo-PAFR Cys mutant 6.54; test: as above; conditions: parent: est. 5, read off a plot
# [25] = biological target: Halo-PAFR Cys mutant 6.56; test: as above; conditions: parent: est. 5, read off a plot
# [26] = biological target: Halo-PAFR Cys mutant 7.33; test: as above; conditions: parent: est. 5, read off a plot
# [27] = biological target: Halo-PAFR Cys mutant 7.35; test: as above; conditions: parent: est. 5, read off a plot
# [28] = biological target: Halo-PAFR Cys mutant 7.37; test: as above; conditions: parent: est. 5, read off a plot
# [29] = biological target: Halo-PAFR Cys mutant 7.38; test: as above; conditions: parent: est. 5, read off a plot
# [30] = biological target: Halo-PAFR Y151C^4.59-I154C^4.62 (human, UniProt P25105 1-342, Y151C^4.59 | I154C^4.62, Halo-tag covalently labelled with HaloTag Alexa Fluor 660 (blots) or HaloTag Alexa Fluor 488 (imaging)); test: cell-based or functional assay
# Sequence of Halo-PAFR Y151C^4.59-I154C^4.62 (P25105 whole entry Y151C/I154C): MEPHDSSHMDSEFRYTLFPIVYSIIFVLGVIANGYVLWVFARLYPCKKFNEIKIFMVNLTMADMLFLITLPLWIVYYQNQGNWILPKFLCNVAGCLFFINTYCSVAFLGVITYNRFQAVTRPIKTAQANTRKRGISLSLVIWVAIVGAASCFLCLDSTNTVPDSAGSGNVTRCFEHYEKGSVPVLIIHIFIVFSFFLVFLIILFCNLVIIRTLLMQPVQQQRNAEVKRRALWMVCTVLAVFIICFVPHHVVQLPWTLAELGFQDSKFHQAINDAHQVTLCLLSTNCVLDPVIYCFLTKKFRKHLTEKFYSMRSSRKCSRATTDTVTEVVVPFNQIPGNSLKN
# [31] = biological target: Halo-PAFR E178K (natural genetic variant) (human, UniProt P25105 1-342, E178K, Halo-tag covalently labelled with HaloTag Alexa Fluor 488); test: cell-based or functional assay
# Sequence of Halo-PAFR E178K (natural genetic variant) (P25105 whole entry E178K): as the sequence (P25105 whole entry Y151C/I154C) above, with C151Y, C154I, E178K counted along it
molecule,measurement,setting,value
Halo-tagged wild-type human platelet-activating factor receptor (from UniProt P25105) 1.33,other: change of dimer cross-linking,[1],14%
Halo-tagged wild-type human platelet-activating factor receptor (from UniProt P25105) 1.35,other: change of dimer cross-linking,[2],18%
Halo-tagged wild-type human platelet-activating factor receptor (from UniProt P25105) 1.38,other: change of dimer cross-linking,[3],16%
Halo-tagged wild-type human platelet-activating factor receptor (from UniProt P25105) 1.39,other: change of dimer cross-linking,[4],13%
Halo-tagged wild-type human platelet-activating factor receptor (from UniProt P25105) 1.41,other: change of dimer cross-linking,[5],20%
Halo-tagged wild-type human platelet-activating factor receptor (from UniProt P25105) 2.59,other: change of dimer cross-linking,[6],21%
Halo-tagged wild-type human platelet-activating factor receptor (from UniProt P25105) 2.63,other: change of dimer cross-linking,[7],14%
Halo-tagged wild-type human platelet-activating factor receptor (from UniProt P25105) 3.23,other: change of dimer cross-linking,[8],8%
Halo-tagged wild-type human platelet-activating factor receptor (from UniProt P25105) 3.27,other: change of dimer cross-linking,[9],9%
Halo-tagged wild-type human platelet-activating factor receptor (from UniProt P25105) 4.47,other: change of dimer cross-linking,[10],13%
Halo-tagged wild-type human platelet-activating factor receptor (from UniProt P25105) 4.48,other: change of dimer cross-linking,[11],14%
Halo-tagged wild-type human platelet-activating factor receptor (from UniProt P25105) 4.51,other: change of dimer cross-linking,[12],19%
Halo-tagged wild-type human platelet-activating factor receptor (from UniProt P25105) 4.53,other: change of dimer cross-linking,[13],20%
Halo-tagged wild-type human platelet-activating factor receptor (from UniProt P25105) 4.54,other: change of dimer cross-linking,[14],20%
Halo-tagged wild-type human platelet-activating factor receptor (from UniProt P25105) 4.56,other: change of dimer cross-linking,[15],22%
Halo-tagged wild-type human platelet-activating factor receptor (from UniProt P25105) 4.57,other: change of dimer cross-linking,[16],15%
Halo-tagged wild-type human platelet-activating factor receptor (from UniProt P25105) 4.58,other: change of dimer cross-linking,[17],22%
Halo-tagged wild-type human platelet-activating factor receptor (from UniProt P25105) 4.60,other: change of dimer cross-linking,[18],20%
Halo-tagged wild-type human platelet-activating factor receptor (from UniProt P25105) 4.61,other: change of dimer cross-linking,[19],18%
Halo-tagged wild-type human platelet-activating factor receptor (from UniProt P25105) 4.64,other: change of dimer cross-linking,[20],11%
Halo-tagged wild-type human platelet-activating factor receptor (from UniProt P25105) 6.49,other: change of dimer cross-linking,[21],15%
Halo-tagged wild-type human platelet-activating factor receptor (from UniProt P25105) 6.51,other: change of dimer cross-linking,[22],6%
Halo-tagged wild-type human platelet-activating factor receptor (from UniProt P25105) 6.53,other: change of dimer cross-linking,[23],10%
Halo-tagged wild-type human platelet-activating factor receptor (from UniProt P25105) 6.54,other: change of dimer cross-linking,[24],8%
Halo-tagged wild-type human platelet-activating factor receptor (from UniProt P25105) 6.56,other: change of dimer cross-linking,[25],9%
Halo-tagged wild-type human platelet-activating factor receptor (from UniProt P25105) 7.33,other: change of dimer cross-linking,[26],15%
Halo-tagged wild-type human platelet-activating factor receptor (from UniProt P25105) 7.35,other: change of dimer cross-linking,[27],16%
Halo-tagged wild-type human platelet-activating factor receptor (from UniProt P25105) 7.37,other: change of dimer cross-linking,[28],19%
Halo-tagged wild-type human platelet-activating factor receptor (from UniProt P25105) 7.38,other: change of dimer cross-linking,[29],15%
B1,"maximal efficacy of βarr1 recruitment, normalized to WT",[30],~60 % of WT
same,"maximal efficacy of βarr1 recruitment, normalized to WT",[31],~83 % of WT
